# B1: Crotoxin B (enzyme)
# chain: HLLQFNKMIKFETRKNAVPFYAFYGCYCGWGGQGRPKDATDRCCFVHDCCYGKLAKCNTKWDIYRYSLKSGYITCGKGTWCEEQICECDRVAAECLRRSLSTYKNGYMFYPDSRCRGPSETC
# Target: the molecule itself
# Experiment: small angle X-ray scattering
protein,measurement,value
B1,stoichiometry N,4

# — PMC5335569, “Biophysical studies suggest a new structural arrangement of crotoxin and provide insights into its toxic mechanism” (Scientific Reports, 2017)
